Results on two molecules are retold here after patent US20240084004A1.

Some results are limits rather than exact numbers.

Test [1] concerns the target T1, canine PD-1 (canine Programmed Death Receptor 1) antigen (canine).
T1 sequence: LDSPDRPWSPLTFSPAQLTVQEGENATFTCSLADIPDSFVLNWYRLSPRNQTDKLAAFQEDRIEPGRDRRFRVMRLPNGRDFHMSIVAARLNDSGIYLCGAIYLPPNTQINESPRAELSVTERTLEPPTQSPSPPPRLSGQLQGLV
Briefly: SPR (Biacore T200), canine PD-1 immobilized by amine coupling, antibody as analyte, 1:1 fit.

Test [2] shares this target. Briefly: SPR (Biacore T200), canine PD-1 immobilized by amine coupling, antibody as analyte, 1:1 fit; off-rate below detection limit. In general terms: Surface plasmon resonance follows binding to a sensor surface in real time, without labels.

B1: Murine 3B6 (mouse anti-canine PD-1 monoclonal antibody) (antibody, V domains shown)
VH: QIQLVQSGPELKKPGETVKISCKASGYTFTTYGMSWVKQAPGKGLKWMGWINIYSGIPTYADDFKGRFAFSLETSASTAYLQIDNLKNEDTATYFCARFDGPDYWGQGTTLTVSS
VL: DIVMTQSPSSLAVSVGRKVTMSCKSSQSLLNSVNQKNYLAWYQQKPGQSPKVLVYFASARVSGVPDRFIGSGSGTDFTLAISSVQAEDLTTYFCQQYFSTPLTFGAGTKLELK
In the case of B1, in test [1], the Kd (commonly a measure of binding affinity in units of concentration) was found to be 2 nM; the koff – broadly, a measure of how fast the partners let go of each other – amounted to 3.4e-05 s⁻¹; the kon (in general, a measure of how fast the partners come together) is 18000 M⁻¹ s⁻¹.

B2: Murine 2H9 (mouse anti-canine PD-1 monoclonal antibody) (antibody, V domains shown)
VH: EVQLQQSVAELVRPGASVKLSCTASGFNIKNTYMHWIKQRPEQGLEWIGRIAPANVDTKYAPKFQGKATITADTSSNTAYMQLSTLTSEDTAIYYCVLIYYDYDGDIDVWGTGTTVTVSS
VL: DIQMNQSPSSLSASLGDTITITCHASQNINVWLSWYQQRPGNIPKLLIYKASHLHTGVPSRFSGSGSGTGFTLTISSLQPEDIATYYCQQGQSWPLTFGAGTKLELK
Take B2: in test [1], the kon is 23000 M⁻¹ s⁻¹. Further, in test [2], the Kd is under 0.2 nM and the koff was under 5e-06 s⁻¹.
